The results in this text go back to patent US20110201560A1 (DKFZ DEUTSCHES KREBSFORSCHUNGSZENTRUM STIFTUNG DES …, published 2011).

For assay [1], the target named is T1, HPV16 E6 oncoprotein (HPV16, UniProt P03126 1-158).
T1 construct: Expressed in yeast from pPC97; In the functional assays it is the endogenous E6 of HPV16-positive cells; also called HPV16 E6 protein; HPV-E6
In words: yeast two-hybrid screening.

Assay [2] deals with T2, HPV18 E6 protein (HPV18, UniProt P06463 1-158).
T2 construct: Expressed in yeast from a pPC97 expression vector; also called E6 of HPV18
T2 sequence (P06463 whole entry): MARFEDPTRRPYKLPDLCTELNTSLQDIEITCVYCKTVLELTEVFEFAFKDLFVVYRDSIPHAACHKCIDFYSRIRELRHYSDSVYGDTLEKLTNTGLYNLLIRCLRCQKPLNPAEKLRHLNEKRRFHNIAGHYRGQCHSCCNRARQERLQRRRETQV
Put plainly: yeast two-hybrid.

Assay [3] deals with T3, HPV11 E6 protein (HPV11, UniProt P04019 1-150).
T3 construct: Expressed in yeast from a pPC97 expression vector; also called E6 of HPV11
T3 sequence: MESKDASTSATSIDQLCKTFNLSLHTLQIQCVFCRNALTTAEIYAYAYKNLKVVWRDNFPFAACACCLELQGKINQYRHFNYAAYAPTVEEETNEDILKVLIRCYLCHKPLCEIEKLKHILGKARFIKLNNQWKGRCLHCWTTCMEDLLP
In words: yeast two-hybrid.

For assay [4], the target named is T4, HPV6 E6 protein (HPV6, UniProt P06462 1-150).
T4 construct: Expressed in yeast from a pPC97 expression vector; also called E6 of HPV6
T4 sequence: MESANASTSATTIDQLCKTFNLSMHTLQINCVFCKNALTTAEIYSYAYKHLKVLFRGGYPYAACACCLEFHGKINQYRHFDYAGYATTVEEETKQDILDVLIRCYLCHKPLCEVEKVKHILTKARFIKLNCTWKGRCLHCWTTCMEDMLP
In words: yeast two-hybrid.

The target of assay [5] is T1, HPV16 E6 oncoprotein. In words: mutational studies (two-hybrid; assay not further described).

T1 sequence (P03126 whole entry): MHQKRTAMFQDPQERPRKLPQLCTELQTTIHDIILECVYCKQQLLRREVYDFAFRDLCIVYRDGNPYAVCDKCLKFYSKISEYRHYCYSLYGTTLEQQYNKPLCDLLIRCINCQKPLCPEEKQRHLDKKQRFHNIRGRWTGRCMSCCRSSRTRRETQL

B1: E6 pep5 (peptide)
peptide: PFLLGCFCLCCWIECQIGSYGP
notes: Linear peptide from a randomized 20-mer library; Expressed in yeast as a GAL4AD fusion (vector pADpep); also called a2
As for B1, the binding result in assay [1] was “binds”; in assay [2] it was “no binding”; in assay [3], “no binding”; in assay [4] it was “no binding”.

B2: E6 pep 11 (peptide)
peptide: EFGSGCSCIVCIGLI
notes: Expressed in yeast as a GAL4AD fusion (pADpep), in the mammalian two-hybrid assay as a VP16AD fusion (pACT2), and in the p53 reporter assay as an hrGFP fusion; also called a3
With B2, the binding result is recorded as “binds” in assay [1], “no binding” in assay [2], “no binding” in assay [3] and “no binding” in assay [4].
Consider KEKEEYNSNSSSIASIGLI (also called b2) [pep11**m], for which, in assay [5], the binding result is “no binding”.

B3: E6 pep 1 (peptide)
peptide: KGSLNCSCLVCWLQMFLGEFGP
notes: Linear peptide from a randomized 20-mer library; Expressed in yeast as a GAL4AD fusion (vector pADpep); also called a1
Turning to B3, the binding result in assay [1] is reported as “binds”; in assay [2], “no binding”; in assay [3], “no binding”; in assay [4] it was “no binding”.
